The supplement of paper PMC10724198
± gives the standard deviation of the averaged measurements.

The sequences below were run on Saccharomyces cerevisiae (assay: protein stability index of tFT-peptide fusion (C-terminal peptide) (PSI (0-1 scale)); higher = more stable (slower turnover)). Settings: genetic background: wild type; temperature: 37 C.
Description: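 MPS profiling in S. cerevisiae of the tFT-X12 degron library: putative degron peptides plus stable controls, 12 aa, fused to the C-terminus of a sfGFP-mCherry timer. Cells are FACS-sorted into 8 mCherry/sfGFP bins and deep-sequenced. PSI runs from 0 (unstable) to 1 (stable). Backgrounds are wild type, das1Δ and doa10Δ at 30 °C, and wild type, das1Δ, cdc34-1 and cdc53-1 at 37 °C; 2-3 technical replicates each.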
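Note: PSI is a weighted mean of sequencing reads over stability bins, variants kept only with over 10 reads, mCherry proximal and sfGFP distal, peptide attached via GGGS linker.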

Point of comparison: GVMICLDLLLSV, protein stability index 0.528 ± 0.0073. Against it:
- FPVSSRSFSFIP — higher, 0.717 ± 0.053
- FRFYCGLVIANV — within error, 0.531 ± 0.039
- FSCLCLCVATSG — lower, 0.355 ± 0.03
- FSFSAFARFLVI — lower, 0.378 ± 0.018
- FSFSCFFFVLFV — lower, 0.0898 ± 0.017
- FSFSFYFALASF — lower, 0.483 ± 0.034
- FTFLFPLRLLPL — lower, 0.442 ± 0.011
- FVFCGVVFLFLL — lower, 0.462 ± 0.0044
- FVFIFIRVFFFR — lower, 0.2451 ± 0.0022
- FVFLVLGPYAMF — higher, 0.556 ± 0.019
- FVGVLVLCVCRC — lower, 0.21 ± 0.014
- FVLFCWFFCIVW — lower, 0.342 ± 0.012
- FVSFFRWLLVSI — lower, 0.218 ± 0.0089
- FYAAILCLLFSC — lower, 0.385 ± 0.0066
- GCDVWCLVLRMG — higher, 0.63 ± 0.025
- GCFVDRVYVVVV — within error, 0.522 ± 0.0064
- GCLFASWPLAVC — lower, 0.209 ± 0.0077
- GCSVSLCCVFVV — lower, 0.433 ± 0.0093
- GCVGLSFCVWVG — lower, 0.3965 ± 0.0014
- GDSVRVIIFCLN — lower, 0.1273 ± 0.00068
- GEVLWAVLLVSC — lower, 0.3 ± 0.0077
- GFFCFLYFVVMF — lower, 0.277 ± 0.0028
- GFIRVRHLRSLC — lower, 0.194 ± 0.026
- GFSFFFIFWFFF — lower, 0.436 ± 0.033
- GFVCFIHLFLCF — lower, 0.367 ± 0.0056
- GFVVYLLLSYLF — lower, 0.437 ± 0.024
- GGFHWCPSASRG — higher, 0.749 ± 0.014
- GGGGLRVVVWLV — lower, 0.15 ± 0.01
- GGRLGRAGGGGR — higher, 0.68996 ± 0.00034
- GGVVLVVVFCCV — lower, 0.3395 ± 0.00053
- GHFILFWVFCFM — lower, 0.409 ± 0.024
- GHSALWQVPRLM — higher, 0.574 ± 0.023
- GLCGVVVGCWVR — lower, 0.4657 ± 0.0044
- GLDLLTKFSKEC — higher, 0.585 ± 0.011
- GLFFLCLLSMCF — lower, 0.396 ± 0.0071
- GLNKGKYIKLYT — higher, 0.641 ± 0.034
- GLSVLLTCIHFV — lower, 0.333 ± 0.014
- GNRDLVNTSVEG — higher, 0.6989 ± 0.0025
- GPVRSPPSPTPR — higher, 0.698 ± 0.014
- GQFVISVRFLYE — within error, 0.516 ± 0.011
- GRGVRLRVRLLL — lower, 0.43 ± 0.04
- GRVETIEFLFLR — within error, 0.508 ± 0.022
- GRWAFFTWLRWS — lower, 0.269 ± 0.047
- GSDGVGGTVLYA — higher, 0.728 ± 0.035
- GSLVLSCLMSRA — within error, 0.537 ± 0.02
- GTIFLIRVLLFG — lower, 0.357 ± 0.069
- GVARALFLWKAV — lower, 0.464 ± 0.0088
- GVLTVVLQVGVV — lower, 0.407 ± 0.0063
- GVVCCGFFFLVV — the same, 0.528 ± 0.055
- GWCLLRVLVLVW — lower, 0.0921 ± 0.035
- GYRRCCHFLFTL — higher, 0.56 ± 0.0064
- HHRLRQGLRRIN — lower, 0.5161 ± 0.0011
- HPPPTLVPPHPR — higher, 0.6803 ± 0.0027
- HRLQFKGYPICA — lower, 0.338 ± 0.0061
- HRPRPLLKLLAS — lower, 0.0284 ± 0.018
- HSRRRRPTPQSL — higher, 0.61 ± 0.016
- HVCKLAMFQWYF — within error, 0.533 ± 0.029
- ICIFWLITGLWL — lower, 0.4633 ± 0.0029
- IFLCRNGAVFIC — lower, 0.0995 ± 0.012
- IFRVTGFPIYIF — lower, 0.3522 ± 0.0011
- IGFSPSFQLYSA — higher, 0.747 ± 0.012
- IGILVTAVPVFD — within error, 0.529 ± 0.011
- IIAGVWFLEILG — lower, 0.497 ± 0.023
- IIGCIAICLMVN — lower, 0.0405 ± 0.027
- IKCVPLVWRLTV — lower, 0.1955 ± 0.001
- IKIQPKKRISLI — lower, 0.391 ± 0.031
- ILAVMFEIYAIL — lower, 0.42 ± 0.023
- ILCYVWLVFSGF — lower, 0.369 ± 0.025
- INHVIHAKLRFS — lower, 0.249 ± 0.075
- ISSAGHNIRFLA — lower, 0.21 ± 0.018
- ISTRLALCACVC — lower, 0.245 ± 0.0031
- IVRDTECGIFYR — higher, 0.723 ± 0.021
- IVVWCGIRYSIR — lower, 0.459 ± 0.0096
- KKKEILVYIIQE — higher, 0.592 ± 0.02
- KRLALVSCSICG — higher, 0.583 ± 0.0087
- KRRKERIKIQQI — lower, 0.28 ± 0.0094
- KVGPVLLLCRRS — higher, 0.69 ± 0.0066

These sequences were tested on Saccharomyces cerevisiae in the same assay as above. Settings: genetic background: wild type; temperature: 30 C.

Point of comparison: GLSVLLTCIHFV, protein stability index 0.256 ± 0.0041. Against it:
- FPVSSRSFSFIP — higher, 0.727 ± 0.046
- FRFYCGLVIANV — higher, 0.483 ± 0.027
- FSCLCLCVATSG — lower, 0.23 ± 0.013
- FSFSAFARFLVI — higher, 0.358 ± 0.036
- FSFSCFFFVLFV — lower, 0.127 ± 0.0048
- FSFSFYFALASF — higher, 0.4603 ± 0.00095
- FTFLFPLRLLPL — higher, 0.3469 ± 0.00084
- FVFCGVVFLFLL — higher, 0.351 ± 0.086
- FVFIFIRVFFFR — within error, 0.269 ± 0.011
- FVFLVLGPYAMF — higher, 0.415 ± 0.0026
- FVGVLVLCVCRC — within error, 0.278 ± 0.024
- FVLFCWFFCIVW — within error, 0.273 ± 0.043
- FVSFFRWLLVSI — lower, 0.152 ± 0.028
- FYAAILCLLFSC — higher, 0.341 ± 0.012
- GCDVWCLVLRMG — higher, 0.47 ± 0.018
- GCFVDRVYVVVV — higher, 0.4763 ± 0.00091
- GCLFASWPLAVC — within error, 0.303 ± 0.043
- GCSVSLCCVFVV — higher, 0.372 ± 0.022
- GCVGLSFCVWVG — higher, 0.314 ± 0.023
- GDSVRVIIFCLN — within error, 0.304 ± 0.081
- GEVLWAVLLVSC — higher, 0.299 ± 0.0047
- GFFCFLYFVVMF — lower, 0.226 ± 0.021
- GFIRVRHLRSLC — within error, 0.234 ± 0.026
- GFSFFFIFWFFF — higher, 0.348 ± 0.022
- GFVCFIHLFLCF — higher, 0.407 ± 0.04
- GFVVYLLLSYLF — within error, 0.333 ± 0.091
- GGFHWCPSASRG — higher, 0.711 ± 0.017
- GGGGLRVVVWLV — within error, 0.211 ± 0.049
- GGRLGRAGGGGR — higher, 0.639 ± 0.22
- GGVVLVVVFCCV — higher, 0.42 ± 0.13
- GHFILFWVFCFM — higher, 0.369 ± 0.024
- GHSALWQVPRLM — higher, 0.474 ± 0.015
- GLCGVVVGCWVR — higher, 0.397 ± 0.014
- GLDLLTKFSKEC — higher, 0.465 ± 0.034
- GLFFLCLLSMCF — higher, 0.384 ± 0.061
- GLNKGKYIKLYT — higher, 0.558 ± 0.089
- GNRDLVNTSVEG — higher, 0.547 ± 0.17
- GPVRSPPSPTPR — higher, 0.727 ± 0.05
- GQFVISVRFLYE — higher, 0.515 ± 0.068
- GRGVRLRVRLLL — within error, 0.292 ± 0.1
- GRVETIEFLFLR — higher, 0.464 ± 0.025
- GRWAFFTWLRWS — within error, 0.261 ± 0.014
- GSDGVGGTVLYA — higher, 0.687 ± 0.037
- GSLVLSCLMSRA — higher, 0.4872 ± 0.00045
- GTIFLIRVLLFG — within error, 0.284 ± 0.028
- GVARALFLWKAV — higher, 0.379 ± 0.041
- GVLTVVLQVGVV — higher, 0.393 ± 0.0095
- GVMICLDLLLSV — higher, 0.468 ± 0.0081
- GVVCCGFFFLVV — higher, 0.464 ± 0.016
- GWCLLRVLVLVW — lower, 0.175 ± 0.022
- GYRRCCHFLFTL — higher, 0.423 ± 0.034
- HHRLRQGLRRIN — higher, 0.462 ± 0.014
- HPPPTLVPPHPR — higher, 0.616 ± 0.19
- HRLQFKGYPICA — higher, 0.33 ± 0.0051
- HRPRPLLKLLAS — lower, 0.145 ± 0.011
- HSRRRRPTPQSL — higher, 0.571 ± 0.12
- HVCKLAMFQWYF — higher, 0.371 ± 0.018
- ICIFWLITGLWL — higher, 0.3884 ± 0.00079
- IFLCRNGAVFIC — lower, 0.158 ± 0.015
- IFRVTGFPIYIF — higher, 0.297 ± 0.012
- IGFSPSFQLYSA — higher, 0.721 ± 0.0083
- IGILVTAVPVFD — higher, 0.451 ± 0.012
- IIAGVWFLEILG — higher, 0.479 ± 0.015
- IIGCIAICLMVN — lower, 0.0843 ± 0.012
- IKCVPLVWRLTV — within error, 0.272 ± 0.031
- IKIQPKKRISLI — higher, 0.299 ± 0.0067
- ILAVMFEIYAIL — higher, 0.3593 ± 0.0012
- ILCYVWLVFSGF — higher, 0.373 ± 0.022
- INHVIHAKLRFS — within error, 0.237 ± 0.066
- ISSAGHNIRFLA — within error, 0.23 ± 0.052
- ISTRLALCACVC — higher, 0.3273 ± 0.0032
- IVRDTECGIFYR — higher, 0.731 ± 0.013
- IVVWCGIRYSIR — higher, 0.366 ± 0.032
- KKKEILVYIIQE — higher, 0.484 ± 0.014
- KRLALVSCSICG — higher, 0.4681 ± 0.0043
- KRRKERIKIQQI — within error, 0.261 ± 0.062
- KVGPVLLLCRRS — higher, 0.445 ± 0.0089
